Test results reported in paper PMC10474089, “Activation of oxidoreductases by the formation of enzyme assembly” (Scientific Reports, 2023).

Assays:
[1] = biological target: L-lactate oxidase (LOX) derived from Enterococcus faecium (Enterococcus faecium); test: SEC; Superdex 200 10/300 GL, 25 °C, 0.75 ml/min, 150 mM NaCl, 0.1 mM DTT, 1 mM EDTA, 25 mM Tris-HCl pH 7.5; assembly state against gel filtration standards
[2] = biological target: Poly-L-lysine (PLL) hydrobromide (molecular weight: 4000–15,000 Da)
[3] = biological target: D-lactate dehydrogenase (DLD) from Gluconobacter oxydans (Gluconobacter oxydans); test: SEC; Superdex 200 10/300 GL, 25 °C, 0.75 ml/min, 150 mM NaCl, 0.1 mM DTT, 1 mM EDTA, 25 mM Tris-HCl pH 7.5; assembly state against gel filtration standards
[4] = biological target: the molecule itself; test: as above

Work on “L-lactate oxidase (LOX) derived from Enterococcus faecium (enzyme)” yielded a stoichiometry N [1] of 4 and an enzyme activity (DCIP assay, 25 nM LOX) with 1 mM PLL against without PLL, at pH 7 and pH 8 [2] of 7.5 fold.

In the case of “D-lactate dehydrogenase (DLD) from Gluconobacter oxydans (enzyme)”, the stoichiometry N [3] is reported as 4.

B1: Glucose dehydrogenase (GDH) from Acinetobacter calcoaceticus (enzyme, UniProt P13650 25-478, looked up)
chain: DVPLTPSQFAKAKSENFDKKVILSNLNKPHALLWGPDNQIWLTERATGKILRVNPESGSVKTVFQVPEIVNDADGQNGLLGFAFHPDFKNNPYIYISGTFKNPKSTDKELPNQTIIRRYTYNKSTDTLEKPVDLLAGLPSSKDHQSGRLVIGPDQKIYYTIGDQGRNQLAYLFLPNQAQHTPTQQELNGKDYHTYMGKVLRLNLDGSIPKDNPSFNGVVSHIYTLGHRNPQGLAFTPNGKLLQSEQGPNSDDEINLIVKGGNYGWPNVAGYKDDSGYAYANYSAAANKSIKDLAQNGVKVAAGVPVTKESEWTGKNFVPPLKTLYTVQDTYNYNDPTCGEMTYICWPTVAPSSAYVYKGGKKAITGWENTLLVPSLKRGVIFRIKLDPTYSTTYDDAVPMFKSNNRYRDVIASPDGNVLYVLTDTAGNVQKDDGSVTNTLENPGSLIKFTYKAK
notes: PQQ-dependent glucose dehydrogenase, Acinetobacter calcoaceticus; expression vector pET22b-acGDH, a gift from Aisin Cosmos R&D; printed mass 53.7 kDa, calculated pI 8.93; also called acGDH
With B1 the “stoichiometry N” value [4] was 4.

B2: Acetaldehyde dehydrogenase (ALDH) from Sphingomonas wittichii (enzyme)
chain: AQAPITGGRPFADKPFKVEEVARFDSPWAMTFLPGGHMLVTEKAGRLLLLSPDGARRTAVEGVPAVDSSGQGALGEVVAHPDFATNGLVYFSYSAPGSPNGIVLARGKLVGDLGGARLEGVTTLYRAHPLKSGGHYAGRIAFSPDGHLFFSMGERQKFTPAQEPDGVLGKVVRLTMDGQPAPGNPLAAKGFDPAVWSYGHRNPLGLAFDLEGRLWDAEMGPKGGDEVNLILPGRNYGWPIVSNGDHYDGKPIPDHVTRPEFEAPKVSWNPSISPSSLLVYSGKLFPQWRGKALVGALSGEMLILVDLGEEGAKEEARYAMGQRIRAVDQGPDGAVYVLEDKAGGRLLRLMPAG
In the case of B2, the “stoichiometry N” value [4] is reported as 2.
